{
  "source": "patent EP3515493A1",
  "target": "HLA-DR, human (human)",
  "test": "cell-based or functional assay",
  "data": [
    {"substance": "Lym-1 CAR", "values": [
      {"measurement": "lysis rate (LDH cytotoxicity assay, Raji target cells)", "result": 22, "unit": "%"}
    ]},
    {"substance": "Lym-2 CAR", "values": [
      {"measurement": "lysis rate (LDH cytotoxicity assay, Raji target cells)", "result": 22, "unit": "%"}
    ]}
  ]
}
